These results are taken from publication PMC9449495, “Transcription factor VvibHLH93 negatively regulates proanthocyanidin biosynthesis in grapevine”.

Data set [1] addresses T1, VvibHLH93 (Vitis vinifera, UniProt A0ABY9CC89 1-331). As to the kind of experiment: EMSA; LightShift Chemiluminescent EMSA Kit (Thermo Fisher) per manufacturer's protocol; buffer, salt, pH and temperature not stated. The settings on record: protein: recombinant, tags: His (pET-32a fusion), chain copies: 2.
Data set [2] concerns the target T1, VvibHLH93. As to the kind of experiment: competition; 50x unlabeled competitor vs N1; shifted band less abundant; LightShift Chemiluminescent EMSA Kit (Thermo Fisher) per manufacturer's protocol; buffer, salt, pH and temperature not stated. The settings on record: protein: recombinant; tags: His (pET-32a fusion); chain copies: 2. A general note: In EMSA bound probe runs differently from free probe, usually more slowly.

T1 sequence (A0ABY9CC89 entry or part of it): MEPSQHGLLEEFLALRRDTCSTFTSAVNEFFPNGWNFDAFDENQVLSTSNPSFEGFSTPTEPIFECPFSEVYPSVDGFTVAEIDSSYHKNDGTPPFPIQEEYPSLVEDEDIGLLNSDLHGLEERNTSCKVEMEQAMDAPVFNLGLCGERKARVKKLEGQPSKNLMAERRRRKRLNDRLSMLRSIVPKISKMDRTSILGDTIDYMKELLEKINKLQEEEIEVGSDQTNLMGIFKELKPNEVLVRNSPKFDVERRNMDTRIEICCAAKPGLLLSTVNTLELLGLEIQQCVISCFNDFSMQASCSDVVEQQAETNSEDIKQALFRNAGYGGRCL

B1: VviLAR1 promoter E/G-box mutant probe (dsDNA)
DNA 1: GAGTCGTTGAGGTATATCATTTTTTTGTTAGAAAATCTTATG
DNA 2: CATAAGATTTTCTAACAAAAAAATGATATACCTCAACGACTC
For the molecule B1, the binding result with VvibHLH93 [1] is on record as “no binding”.

B2: VviLAR1 promoter E/G-box probe (tandem MYC and G-box) (dsDNA)
DNA 1: GAGTCGTTGAGGCACATGATTTTTTTGTTAGGACGTGTTATG
DNA 2: CATAACACGTCCTAACAAAAAAATCATGTGCCTCAACGACTC
B2: the binding result in the data set with VvibHLH93 [1] (label: 3' biotin) is “binds”.

B3: VviLAR1 promoter E/G-box cold probe (dsDNA)
DNA 1: GAGTCGTTGAGGCACATGATTTTTTTGTTAGGACGTGTTATG
DNA 2: CATAACACGTCCTAACAAAAAAATCATGTGCCTCAACGACTC
As to B3, the binding result with VvibHLH93 [2] is “binds”.
